PMC4742278, “BS69/ZMYND11 C-Terminal Domains Bind and Inhibit EBNA2” (PLoS Pathogens, 2016)

How the values were obtained:
[1] = target: BS69/ZMYND11 coiled-coil-MYND tandem domains (BS69_(CC-MYND), residues 440–562) (mouse); assay: ITC; peptide (~1 mM) titrated into BS69_(MYND) or BS69_(CC-MYND) (~0.1 mM) at 5°C; 20 mM Tris-HCl pH 7.5, 100 mM NaCl, 2 mM DTT; one-site fitting model
[2] = target: BS69 MYND domain (BS69_(MYND), residues 516–562) (mouse); assay: as above

B1: EBNA2_(435–445) peptide (NH2-…-CONH2) (peptide)
peptide: H-EAPILFPDDWY-NH2
B1 gave a Kd [1] of 34.9 µM and a Kd [2] of 93.4 µM.
